Patent US7189837 (NEUROTECH S A, dated 2007)

Assays:
[1] = target: hTR-FcΔH (human transferrin receptor residues 1-97 fused to CH1 and hinge deleted human IgG1 heavy chain constant region), expressed on BHK cells (human); experiment: cell ELISA on BHK-FcΔH cells, goat anti-human IgG Fc alkaline phosphatase conjugate 1:1000, PNPP substrate
[2] = target: T1, human FcγRI on interferon-γ-treated U937 cells (human, UniProt P12314 16-374); experiment: inferred from Fc receptor-mediated superoxide production in U937 cells
T1 construct: whole, on cells; also called FcγR1; CD64
Method: To assess whether cell surface expression of reverse Fc was biologically active in terms of Fc receptor binding and complement fixation, Fc receptor-mediated superoxide production in the human monocyte-like cell line was examined. Superoxide was measured spectrophotometrically as a function of the cell's ability to reduce cytochrome c. Superoxide production was determined using the 96-well microtiter plate assay of Tao, et al., *J Leukoc Biol*, 58: 203–208 (1995). 25,000 cells/well of either BHK-WT (control), opsonized BHK cells, or BHK-reverse Fc clones were added to the assay plate containing either human monocyte-like U937 cells (ATCC, Rockville, Md.) pre treated with recombinant human interferon-γ (R&D Systems, Minneapolis, Minn.) or lavaged mouse peritoneal macrophages. The O_2-release was measured as the superoxide dismutase (SOD) inhibitable reduction of cytochrome c at 550 nm by using a ThermoMax Plate reader (Molecular Devices, Menlo Park, Calif.). The rate of O_2-production was monitored from time 0 to […] after stimulation.

T1 sequence (P12314 16-374): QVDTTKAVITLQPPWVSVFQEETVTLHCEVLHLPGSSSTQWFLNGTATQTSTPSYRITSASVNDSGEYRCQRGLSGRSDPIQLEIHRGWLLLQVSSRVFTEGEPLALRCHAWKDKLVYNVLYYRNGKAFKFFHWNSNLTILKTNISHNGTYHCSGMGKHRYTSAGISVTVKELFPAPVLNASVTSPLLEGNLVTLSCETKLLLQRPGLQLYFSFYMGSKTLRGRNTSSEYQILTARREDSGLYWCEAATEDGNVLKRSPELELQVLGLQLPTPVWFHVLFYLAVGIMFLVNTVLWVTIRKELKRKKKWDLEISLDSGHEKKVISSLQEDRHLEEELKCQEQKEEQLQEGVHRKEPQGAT

Cell Surface Fc (OD405) [1] [OD405] | binding result [2] | Molecule
2.8 | – | Goat anti-human IgG Fc alkaline phosphatase conjugate (Sigma) (antibody)
– | binds | hTR-FcΔH (human transferrin receptor residues 1-97 fused to CH1 and hinge deleted human IgG1 heavy chain constant region), expressed on BHK cells (Fc fusion, also called BHK-FcΔH; BHK-FcΔH(3)) MMDQARSAFSNLFGGEPLSYTRFSLARQVDGDNSHVEMKLAVDEEENADNNTKANVTKPKRCSGSICYGTIAVIVFFLIGFMIGYLGYCKGVEPKTEGSAPELLGGPSVFLFPPKPKDTLMISRTPEVTCVVVDVSHEDPEVKFNWYVDGVEVHNAKTKPREEQYNSTYRVVSVLTVLHQDWLNGKEYKCKVSNKALPAPIEKTISKAKGQPREPQVYTLPPSRDELTKNQVSLTCLVKGFYPSDIAVEWESNGQPENNYKTTPPVLDSDGSFFLYSKLTVDKSRWQQGNVFSCSVMHEALHNHYTQKSLSLSPGK
